Key:
[1] = target: RILP (Rab7-interacting lysosomal protein) 1-185 (UniProt Q96NA2); assay: GST-RILP 1-185 pull-down from cell lysate; details: reference: GFP-LIC1 wild type; sites T213
[2] = target: adenovirus serotype 5 hexon capsid subunit (Ad5 (adenovirus serotype 5), UniProt P04133 1-952); assay: pull-down
Chain of adenovirus serotype 5 hexon capsid subunit (P04133 whole entry): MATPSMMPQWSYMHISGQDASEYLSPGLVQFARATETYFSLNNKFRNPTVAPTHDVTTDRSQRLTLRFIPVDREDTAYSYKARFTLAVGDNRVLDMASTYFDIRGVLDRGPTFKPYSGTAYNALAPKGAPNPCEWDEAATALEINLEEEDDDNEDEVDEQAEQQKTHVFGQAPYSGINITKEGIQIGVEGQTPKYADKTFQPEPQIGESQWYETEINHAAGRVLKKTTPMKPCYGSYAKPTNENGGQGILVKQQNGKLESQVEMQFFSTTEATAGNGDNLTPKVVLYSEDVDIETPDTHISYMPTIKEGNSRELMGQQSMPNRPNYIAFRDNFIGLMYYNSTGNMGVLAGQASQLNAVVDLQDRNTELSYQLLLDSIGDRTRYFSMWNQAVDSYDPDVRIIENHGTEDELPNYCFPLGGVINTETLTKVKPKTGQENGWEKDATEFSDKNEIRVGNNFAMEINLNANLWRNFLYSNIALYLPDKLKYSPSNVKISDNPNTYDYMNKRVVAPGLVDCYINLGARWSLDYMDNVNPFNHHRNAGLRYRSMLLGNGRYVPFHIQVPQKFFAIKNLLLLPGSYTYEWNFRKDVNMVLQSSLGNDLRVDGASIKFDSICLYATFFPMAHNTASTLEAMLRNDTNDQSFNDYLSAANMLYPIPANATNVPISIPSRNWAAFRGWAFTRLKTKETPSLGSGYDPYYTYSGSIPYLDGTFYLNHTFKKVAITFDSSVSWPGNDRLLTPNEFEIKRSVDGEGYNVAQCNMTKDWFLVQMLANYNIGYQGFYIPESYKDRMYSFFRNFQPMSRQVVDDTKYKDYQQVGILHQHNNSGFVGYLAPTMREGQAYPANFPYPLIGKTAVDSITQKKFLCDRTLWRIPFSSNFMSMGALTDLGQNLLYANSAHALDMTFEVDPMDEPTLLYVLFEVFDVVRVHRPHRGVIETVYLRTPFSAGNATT

Row | Molecule | binding against the reference [1] | binding result [2]
1 | dynein light intermediate chain 1 (LIC1) (from UniProt Q9QXU8) GFP-LIC1-T213A | stronger | –
2 | bacterially expressed full-length IC1A phosphorylated with PKA catalytic subunit (natural protein, rat, UniProt Q63100 1-643, looked up, phosphorylated by PKA (the paper names IC1-T59 as the sole PKA site)) MSDKSDLKAELERKKQRLAQIREEKKRKEEERKKKEADMQQKKEPVPDDSDLDRKRRETEALLQSIGISPEPPLVQPLHFLTWDTCYFHYLVPTPMSPSSKSVSTPSEAGSQDDLGPLTRTLQWDTDPSVLQLQSDSELGRRLNKLGVSKVTQVDFLPREVVSYSKETQTPLATHQSEEDEEDEEMVEPKVGHDSELENQDKKQETKEAPPRELTEEEKQQILHSEEFLIFFDRTIRVIERALAEDSDIFFDYSGRELEEKDGDVQAGANLSFNRQFYDEHWSKHRVVTCMDWSLQYPELMVASYSNNEDAPHEPDGVALVWNMKFKKTTPEYVFHCQSSVMSVCFARFHPNLVVGGTYSGQIVLWDNRSHRRTPVQRTPLSAAAHTHPVYCVNVVGTQNAHNLITVSTDGKMCSWSLDMLSTPQESMELVYNKSKPVAVTGMAFPTGDVNNFVVGSEEGTVYTACRHGSKAGIGEVFEGHQGPVTGINCHMAVGPIDFSHLFVTSSFDWTVKLWTTKHNKPLYSFEDNADYVYDVMWSPVHPALFACVDGMGRLDLWNLNSDTEVPTASVAIEGAYALNRVRWAQGGKEVAVGDSEGRIWIYDVGELAVPHNDEWTRFARTLVEIRANRADSEEEGAVELAA | – | binds
3 | bacterially expressed LIC1-T213D (natural protein, rat, UniProt Q9QXU8 1-523, looked up) MAAVGRVGSFGSSPPGLASTYASGPLANELASGSGGPAAGDDEDGQNLWSRILREVSTRSRSKLPTGKNVLLLGEDGAGKTSLIRRIQGIEEYKKGRGLEYLYLNVHDEDRDDQTRCNVWILDGDLYHKGLLKFSLDALSLRDTLVMLVVDMSKPWTALDSLQKWASVVREHVDKLKIPPEEMKEMEQKLIRDFQEYVEPGEDFPASPQRRADAAQEDRDDSVVLPLGADTLTHNLGLPVLVVCTKCDAISVLEKEHDYRDEHFDFIQSHIRKFCLQYGAALIYTSVKENKNIDLVYKYIVQKLYGFPYKIPAVVVEKDAVFIPAGWDNDKKIGILHENFQTLKIEDNFEDIITKPPVRKFVHEKEIMAEDDQVFLMKLQSLLAKQPPTAAGRPVDASPRVPGGSPRTPNRSVSSNVASVSPIPAGSKKIDPNMKAGATSEGVLANFFNSLLSKKTGSPGGPGVGGSPGGGAAGASTSLPPSAKKSGQKPVLSDVHAELDRITRKPASVSPTTPPSPTEGEAS | – | binds
4 | bacterially expressed full-length LIC1 phosphorylated with PKA catalytic subunit (natural protein, rat, UniProt Q9QXU8 1-523, looked up, phosphorylated by PKA; T213 identified as the major PKA site) MAAVGRVGSFGSSPPGLASTYASGPLANELASGSGGPAAGDDEDGQNLWSRILREVSTRSRSKLPTGKNVLLLGEDGAGKTSLIRRIQGIEEYKKGRGLEYLYLNVHDEDRDDQTRCNVWILDGDLYHKGLLKFSLDALSLRDTLVMLVVDMSKPWTALDSLQKWASVVREHVDKLKIPPEEMKEMEQKLIRDFQEYVEPGEDFPASPQRRATAAQEDRDDSVVLPLGADTLTHNLGLPVLVVCTKCDAISVLEKEHDYRDEHFDFIQSHIRKFCLQYGAALIYTSVKENKNIDLVYKYIVQKLYGFPYKIPAVVVEKDAVFIPAGWDNDKKIGILHENFQTLKIEDNFEDIITKPPVRKFVHEKEIMAEDDQVFLMKLQSLLAKQPPTAAGRPVDASPRVPGGSPRTPNRSVSSNVASVSPIPAGSKKIDPNMKAGATSEGVLANFFNSLLSKKTGSPGGPGVGGSPGGGAAGASTSLPPSAKKSGQKPVLSDVHAELDRITRKPASVSPTTPPSPTEGEAS | – | binds
